The source of these data is article PMC10480196, “Glycerol biosynthetic pathway plays an essential role in proliferation and antioxidative defense in the human enteric protozoan parasite Entamoeba histolytica” (Scientific Reports, 2023).

Holding throughout (assay type): biochemical, Entamoeba histolytica
Substrate in data set [1]: Nc1ncnc2c1ncn2[C@@H]1O[C@H](COP(=O)(O)OP(=O)(O)OP(=O)(O)O)[C@@H](O)[C@H]1O
Description: coupled fluorescence assay (ADP hexokinase, G6P dehydrogenase, diaphorase; resazurin reduction). The following applies: forward reaction, 2 mM glycerol, 5 mM MgCl2, 50 mM Tris HCl pH 7.5, 37 °C, 10 mM N-ethylmaleimide. The source says: (§1) coupled fluorescence assay (ADP hexokinase, G6P dehydrogenase, diaphorase; resazurin reduction) on EhGK (rEhGK, recombinant E. histolytica glycerol kinase)
For orientation: Resazurin is reduced to fluorescent resorufin, in cell work by metabolically active cells.

Substrate in data set [2]: OCC(O)CO
The data set is described as above. The following applies: forward reaction, 2 mM ATP, 5 mM MgCl2, 50 mM Tris HCl pH 7.5, 37 °C, 10 mM N-ethylmaleimide.
Description: as §1

Substrate in data set [3]: Nc1ncnc2c1ncn2[C@@H]1O[C@H](COP(=O)(O)OP(=O)(O)O)[C@@H](O)[C@H]1O
Description: purified protein. The following applies: reverse reaction, 40 mM G3P, 5 mM MgSO4, 1 mM EDTA, 50 mM Tris HCl pH 7.5.

Substrate in data set [4]: O=P(O)(O)OC[C@H](O)CO
The data set is described as follows: purified protein. The following applies: reverse reaction, 1 mM ADP, 5 mM MgSO4, 1 mM EDTA, 50 mM Tris HCl pH 7.5.

B1: EhGK (rEhGK, recombinant E. histolytica glycerol kinase) (Entamoeba histolytica HM-1:IMSS) (protein)
chain: MKYILAIDQGTTSTRVILFDEKCQSIHTEQEEFDSIFPHPGWVEQDPEVIYTSVVNLMKKCLVNTGINKEDIAAIGITNQRETTVMWDKRTGKPIYNAIVWQSKQSGNETSYLMEKGYEEIFQSKTGLVLNPYFSASKIMWIFNNVEGAKALAEEGVLLFGTIDTWIIYNLTGGQSHSTDISNAARTLLFNIYEKKWDDELLAKTNIPKSILPIVKQSSDDFGIVSTIQEFNGIHITGVAGDQQASLFGHGSPIGGCKSTYGTGCFVVKNIGDTIKEIPKGLLATVGWEINGKITYALEGTVMTAGAALKWIRDIGILKDYNEISKIVTSKNGGVYFVPAFQGLGTPYWDDDVRGIIVGLTSGTGKGELVRATLESIALQCAQVIEIMGKINEIKVDGGVSRSDCMLQFQADICNCTVIRLKEKEITAMGAAMLAGLYVHLFKEDELDSMRVIEHVFKPQMSEEERKQIFSVWNKAVESARSFVH
For B1, the Michaelis-Menten constant (Km) amounted to 0.23 ± 0.03 mM in data set [1], 0.16 ± 0.03 mM in data set [2], 0.14 ± 0.04 mM in the data set “purified protein [3]” and 8.71 ± 2.46 mM in the data set “purified protein [4]”. Further, the maximal velocity (Vmax) in data set [1] came to 1.3 µmol/min/mg; in data set [2], 1.48 µmol/min/mg; in the data set “purified protein [3]”, 1.2 µmol/min/mg; in the data set “purified protein [4]” it was 1.28 µmol/min/mg.

In general, Km refers to the substrate concentration at which the rate is half of its maximum. The Vmax is the top rate of the reaction or transport when substrate is in excess.
